Source: patent US8673848 (Novartis, dated 2014)
Bridges are numbered along the chain shown (N, C = ends). [ ]: non-standard residue; d: D form. The star is where a group is joined. 3Pal = N[C@@H](Cc1cccnc1)C(=O)O; Myristoyl = CCCCCCCCCCCCCC(=O)*; pGlu = O=C1CC[C@@H](C(=O)O)N1; d(hCys) = N[C@H](CCS)C(=O)O; hCys = N[C@@H](CCS)C(=O)O; Nle = CCCC[C@H](N)C(=O)O; AEEA = NCCOCCOCC(=O)O

T1: human APJ receptor (hAPJ) (human, UniProt P35414 1-380)
T1 sequence (looked up): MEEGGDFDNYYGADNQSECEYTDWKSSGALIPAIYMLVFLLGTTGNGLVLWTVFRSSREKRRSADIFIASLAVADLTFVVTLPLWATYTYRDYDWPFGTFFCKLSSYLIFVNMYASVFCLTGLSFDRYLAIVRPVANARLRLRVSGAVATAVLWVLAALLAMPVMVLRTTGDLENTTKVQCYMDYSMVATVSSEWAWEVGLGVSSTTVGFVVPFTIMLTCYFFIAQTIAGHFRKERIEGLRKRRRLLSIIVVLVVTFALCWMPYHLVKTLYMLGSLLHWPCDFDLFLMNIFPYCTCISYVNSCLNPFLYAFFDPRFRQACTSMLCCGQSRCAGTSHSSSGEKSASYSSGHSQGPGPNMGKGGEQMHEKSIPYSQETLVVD

B1: Example 43: pE-R-P-R-L-C-E-K-G-P-Nle-C-F-OH (peptide)
peptide: [pGlu]RPRLCEKGP[Nle]CF-OH
modifications: disulfide 6-12
SMILES: CCCC[C@@H]1NC(=O)[C@@H]2CCCN2C(=O)CNC(=O)[C@H](CCCCN)NC(=O)[C@H](CCC(=O)O)NC(=O)[C@@H](NC(=O)[C@H](CC(C)C)NC(=O)[C@H](CCCNC(=N)N)NC(=O)[C@@H]2CCCN2C(=O)[C@H](CCCNC(=N)N)NC(=O)[C@@H]2CCC(=O)N2)CSSC[C@@H](C(=O)N[C@@H](Cc2ccccc2)C(=O)O)NC1=O
B2: Example 44: pE-R-P-R-L-C-H-K-L-P-Nle-C-F-OH (peptide)
peptide: [pGlu]RPRLCHKLP[Nle]CF-OH
modifications: disulfide 6-12
SMILES: CCCC[C@@H]1NC(=O)[C@@H]2CCCN2C(=O)[C@H](CC(C)C)NC(=O)[C@H](CCCCN)NC(=O)[C@H](Cc2c[nH]cn2)NC(=O)[C@@H](NC(=O)[C@H](CC(C)C)NC(=O)[C@H](CCCNC(=N)N)NC(=O)[C@@H]2CCCN2C(=O)[C@H](CCCNC(=N)N)NC(=O)[C@@H]2CCC(=O)N2)CSSC[C@@H](C(=O)N[C@@H](Cc2ccccc2)C(=O)O)NC1=O
B3: Example 45: pE-R-P-R-L-C-H-K-R-P-Nle-C-F-OH (peptide)
peptide: [pGlu]RPRLCHKRP[Nle]CF-OH
modifications: disulfide 6-12
SMILES: CCCC[C@@H]1NC(=O)[C@@H]2CCCN2C(=O)[C@H](CCCNC(=N)N)NC(=O)[C@H](CCCCN)NC(=O)[C@H](Cc2c[nH]cn2)NC(=O)[C@@H](NC(=O)[C@H](CC(C)C)NC(=O)[C@H](CCCNC(=N)N)NC(=O)[C@@H]2CCCN2C(=O)[C@H](CCCNC(=N)N)NC(=O)[C@@H]2CCC(=O)N2)CSSC[C@@H](C(=O)N[C@@H](Cc2ccccc2)C(=O)O)NC1=O
B4: Example 47: pE-R-P-R-L-C-H-K-G-P-(3-PyA)-C-F-OH (peptide)
peptide: [pGlu]RPRLCHKGP[3Pal]CF-OH
modifications: disulfide 6-12
SMILES: CC(C)C[C@H](NC(=O)[C@H](CCCNC(=N)N)NC(=O)[C@@H]1CCCN1C(=O)[C@H](CCCNC(=N)N)NC(=O)[C@@H]1CCC(=O)N1)C(=O)N[C@H]1CSSC[C@@H](C(=O)N[C@@H](Cc2ccccc2)C(=O)O)NC(=O)[C@H](Cc2cccnc2)NC(=O)[C@@H]2CCCN2C(=O)CNC(=O)[C@H](CCCCN)NC(=O)[C@H](Cc2c[nH]cn2)NC1=O
B5: Example 48: pE-R-P-R-L-C-H-K-G-P-Nle-C-H-OH (peptide)
peptide: [pGlu]RPRLCHKGP[Nle]CH-OH
modifications: disulfide 6-12
SMILES: CCCC[C@@H]1NC(=O)[C@@H]2CCCN2C(=O)CNC(=O)[C@H](CCCCN)NC(=O)[C@H](Cc2c[nH]cn2)NC(=O)[C@@H](NC(=O)[C@H](CC(C)C)NC(=O)[C@H](CCCNC(=N)N)NC(=O)[C@@H]2CCCN2C(=O)[C@H](CCCNC(=N)N)NC(=O)[C@@H]2CCC(=O)N2)CSSC[C@@H](C(=O)N[C@@H](Cc2c[nH]cn2)C(=O)O)NC1=O
B6: Example 49: pE-R-P-R-L-C-H-K-G-P-Nle-C-E-OH (peptide)
peptide: [pGlu]RPRLCHKGP[Nle]CE-OH
modifications: disulfide 6-12
SMILES: CCCC[C@@H]1NC(=O)[C@@H]2CCCN2C(=O)CNC(=O)[C@H](CCCCN)NC(=O)[C@H](Cc2c[nH]cn2)NC(=O)[C@@H](NC(=O)[C@H](CC(C)C)NC(=O)[C@H](CCCNC(=N)N)NC(=O)[C@@H]2CCCN2C(=O)[C@H](CCCNC(=N)N)NC(=O)[C@@H]2CCC(=O)N2)CSSC[C@@H](C(=O)N[C@@H](CCC(=O)O)C(=O)O)NC1=O
B7: Example 50: pE-R-P-R-L-C-H-K-G-P-Nle-C-OH (peptide)
peptide: [pGlu]RPRLCHKGP[Nle]C-OH
modifications: disulfide 6-12
SMILES: CCCC[C@@H]1NC(=O)[C@@H]2CCCN2C(=O)CNC(=O)[C@H](CCCCN)NC(=O)[C@H](Cc2c[nH]cn2)NC(=O)[C@@H](NC(=O)[C@H](CC(C)C)NC(=O)[C@H](CCCNC(=N)N)NC(=O)[C@@H]2CCCN2C(=O)[C@H](CCCNC(=N)N)NC(=O)[C@@H]2CCC(=O)N2)CSSC[C@@H](C(=O)O)NC1=O
B8: Example 51: pE-R-P-R-L-C-H-K-G-P-Nle-hC-F-OH (peptide)
peptide: [pGlu]RPRLCHKGP[Nle][hCys]F-OH
modifications: disulfide 6-12
SMILES: CCCC[C@@H]1NC(=O)[C@@H]2CCCN2C(=O)CNC(=O)[C@H](CCCCN)NC(=O)[C@H](Cc2c[nH]cn2)NC(=O)[C@@H](NC(=O)[C@H](CC(C)C)NC(=O)[C@H](CCCNC(=N)N)NC(=O)[C@@H]2CCCN2C(=O)[C@H](CCCNC(=N)N)NC(=O)[C@@H]2CCC(=O)N2)CSSCC[C@@H](C(=O)N[C@@H](Cc2ccccc2)C(=O)O)NC1=O
B9: Example 52: pE-R-P-R-L-hC-H-K-G-P-Nle-hC-F-OH (peptide)
peptide: [pGlu]RPRL[hCys]HKGP[Nle][hCys]F-OH
modifications: disulfide 6-12
SMILES: CCCC[C@@H]1NC(=O)[C@@H]2CCCN2C(=O)CNC(=O)[C@H](CCCCN)NC(=O)[C@H](Cc2c[nH]cn2)NC(=O)[C@@H](NC(=O)[C@H](CC(C)C)NC(=O)[C@H](CCCNC(=N)N)NC(=O)[C@@H]2CCCN2C(=O)[C@H](CCCNC(=N)N)NC(=O)[C@@H]2CCC(=O)N2)CCSSCC[C@@H](C(=O)N[C@@H](Cc2ccccc2)C(=O)O)NC1=O
B10: Example 53: pE-R-P-R-L-c-H-K-G-P-Nle-C-F-OH (peptide)
peptide: [pGlu]RPRL[dC]HKGP[Nle]CF-OH
modifications: disulfide 6-12
SMILES: CCCC[C@@H]1NC(=O)[C@@H]2CCCN2C(=O)CNC(=O)[C@H](CCCCN)NC(=O)[C@H](Cc2c[nH]cn2)NC(=O)[C@H](NC(=O)[C@H](CC(C)C)NC(=O)[C@H](CCCNC(=N)N)NC(=O)[C@@H]2CCCN2C(=O)[C@H](CCCNC(=N)N)NC(=O)[C@@H]2CCC(=O)N2)CSSC[C@@H](C(=O)N[C@@H](Cc2ccccc2)C(=O)O)NC1=O
B11: Example 54: pE-R-P-R-L-C-H-K-G-P-Nle-(D-hC)-F-OH (peptide)
peptide: [pGlu]RPRLCHKGP[Nle][d(hCys)]F-OH
modifications: disulfide 6-12
SMILES: CCCC[C@@H]1NC(=O)[C@@H]2CCCN2C(=O)CNC(=O)[C@H](CCCCN)NC(=O)[C@H](Cc2c[nH]cn2)NC(=O)[C@@H](NC(=O)[C@H](CC(C)C)NC(=O)[C@H](CCCNC(=N)N)NC(=O)[C@@H]2CCCN2C(=O)[C@H](CCCNC(=N)N)NC(=O)[C@@H]2CCC(=O)N2)CSSCC[C@H](C(=O)N[C@@H](Cc2ccccc2)C(=O)O)NC1=O
B12: Example 55: pE-R-P-R-L-(D-hC)-H-K-G-P-Nle-(D-hC)-F-OH (peptide)
peptide: [pGlu]RPRL[d(hCys)]HKGP[Nle][d(hCys)]F-OH
modifications: disulfide 6-12
SMILES: CCCC[C@@H]1NC(=O)[C@@H]2CCCN2C(=O)CNC(=O)[C@H](CCCCN)NC(=O)[C@H](Cc2c[nH]cn2)NC(=O)[C@H](NC(=O)[C@H](CC(C)C)NC(=O)[C@H](CCCNC(=N)N)NC(=O)[C@@H]2CCCN2C(=O)[C@H](CCCNC(=N)N)NC(=O)[C@@H]2CCC(=O)N2)CCSSCC[C@H](C(=O)N[C@@H](Cc2ccccc2)C(=O)O)NC1=O
B13: Example 56: pE-R-P-R-L-C-H-K-G-P-Nle-c-F-OH (peptide)
peptide: [pGlu]RPRLCHKGP[Nle][dC]F-OH
modifications: disulfide 6-12
SMILES: CCCC[C@@H]1NC(=O)[C@@H]2CCCN2C(=O)CNC(=O)[C@H](CCCCN)NC(=O)[C@H](Cc2c[nH]cn2)NC(=O)[C@@H](NC(=O)[C@H](CC(C)C)NC(=O)[C@H](CCCNC(=N)N)NC(=O)[C@@H]2CCCN2C(=O)[C@H](CCCNC(=N)N)NC(=O)[C@@H]2CCC(=O)N2)CSSC[C@H](C(=O)N[C@@H](Cc2ccccc2)C(=O)O)NC1=O
B14: Example 57: pE-R-P-R-L-c-H-K-G-P-Nle-c-F-OH (peptide)
peptide: [pGlu]RPRL[dC]HKGP[Nle][dC]F-OH
modifications: disulfide 6-12
SMILES: CCCC[C@@H]1NC(=O)[C@@H]2CCCN2C(=O)CNC(=O)[C@H](CCCCN)NC(=O)[C@H](Cc2c[nH]cn2)NC(=O)[C@H](NC(=O)[C@H](CC(C)C)NC(=O)[C@H](CCCNC(=N)N)NC(=O)[C@@H]2CCCN2C(=O)[C@H](CCCNC(=N)N)NC(=O)[C@@H]2CCC(=O)N2)CSSC[C@H](C(=O)N[C@@H](Cc2ccccc2)C(=O)O)NC1=O
B15: Example 58: Myristoyl-O2Oc-O2Oc-Q-R-P-R-L-C-H-K-G-P-Nle-C-f-OH (peptide)
peptide: Myristoyl-[AEEA][AEEA]QRPRLCHKGP[Nle]C[dF]-OH
modifications: disulfide 8-14
SMILES: CCCCCCCCCCCCCC(=O)NCCOCCOCC(=O)NCCOCCOCC(=O)N[C@@H](CCC(N)=O)C(=O)N[C@@H](CCCNC(=N)N)C(=O)N1CCC[C@H]1C(=O)N[C@@H](CCCNC(=N)N)C(=O)N[C@@H](CC(C)C)C(=O)N[C@H]1CSSC[C@@H](C(=O)N[C@H](Cc2ccccc2)C(=O)O)NC(=O)[C@H](CCCC)NC(=O)[C@@H]2CCCN2C(=O)CNC(=O)[C@H](CCCCN)NC(=O)[C@H](Cc2c[nH]cn2)NC1=O
B16: Example 59: Myristoyl-O2Oc-O2Oc-O2Oc-Q-R-P-R-L-C-H-K-G-P-Nle-C-f-OH (peptide)
peptide: Myristoyl-[AEEA][AEEA][AEEA]QRPRLCHKGP[Nle]C[dF]-OH
modifications: disulfide 9-15
SMILES: CCCCCCCCCCCCCC(=O)NCCOCCOCC(=O)NCCOCCOCC(=O)NCCOCCOCC(=O)N[C@@H](CCC(N)=O)C(=O)N[C@@H](CCCNC(=N)N)C(=O)N1CCC[C@H]1C(=O)N[C@@H](CCCNC(=N)N)C(=O)N[C@@H](CC(C)C)C(=O)N[C@H]1CSSC[C@@H](C(=O)N[C@H](Cc2ccccc2)C(=O)O)NC(=O)[C@H](CCCC)NC(=O)[C@@H]2CCCN2C(=O)CNC(=O)[C@H](CCCCN)NC(=O)[C@H](Cc2c[nH]cn2)NC1=O

biological target: T1, human APJ receptor (hAPJ); assay: cell-based or functional assay

hAPJ Ca2+ Flux EC50 [nM] | Binder
4.14 | B1
5.94 | B2
6.55 | B3
3.87 | [pGlu]RPRLCHKG[Pipecolic acid][Nle]CF-OH (disulfide 6-12) [Example 46: pE-R-P-R-L-C-H-K-G-(Pipecolic acid)-Nle-C-F-OH]
2.41 | B4
4.1 | B5
34.2 | B6
21.2 | [pGlu]RPRLKFKGP[Nle]F (lactam 6-C) [Example 5: pE-R-P-R-L-K-F-K-G-P-Nle-F]
1.92 | B7
1.09 | B8
53.9 | B9
1.07 | B10
6.7 | B11
8.16 | B12
1.12 | B13
2.01 | B14
13.1 | B15
10 | B16
